Results published in patent US20230399394A1 (SUNSHINE GUOJIAN PHARMACEUTICAL SHANGHAI, published 2023).

Columns and labels:
Human IL-33-his [1] = target: T1, Human IL-33-his (human, UniProt O95760 112-270, biotinylated with EZ-Link NHS-Biotin where used as IL-33-his-biotin); assay: cell-based or functional assay
T1 sequence: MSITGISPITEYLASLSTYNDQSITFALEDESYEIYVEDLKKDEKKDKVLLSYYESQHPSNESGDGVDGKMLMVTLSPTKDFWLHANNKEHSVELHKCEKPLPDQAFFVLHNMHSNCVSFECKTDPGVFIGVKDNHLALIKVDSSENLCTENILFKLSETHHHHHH

Human IL-33-his [2] = target: T1, Human IL-33-his; assay: ELISA as Example 9, IL-33-his-biotin on streptavidin plate
Human IL-33-his [3] = target: T1, Human IL-33-his; assay: competition ELISA as Example 10, ST2-Fc on plate; competitor ST2-Fc
Procedure: (§1) ST2-Fc protein was diluted to 1 μg/mL with ELISA coating solution to coat ELISA plate with 100 μL/well. The plate was placed in a wet box at 4° C. for 16 h for coating. The ELISA plate was washed 3 times with PBST, and then was blocked with 2% BSA prepared in PBS at 200 μL/well at room temperature for 2 h. The plate was washed once with PBST, and was patted dry to remove the excess blocking solution. Each monoclonal antibody was diluted with 1% BSA prepared in PBST in a 3-fold gradient. The highest concentration of antibody was 10 μg/mL, and the antibody was diluted for 11 gradients. The diluted antibody was mixed 1:1 with 10 ng/ml IL-33-his-biotin, and then the mixture was added into the ELISA well at 100 μL/well. The plate was incubated at room temperature for 1 h. Each concentration was added to duplicate wells in parallel (maximum final concentration of antibody was […], final concentration of IL-33-his-biotin was 5 ng/mL). Unbound or non-specifically bound primary antibodies were washed out. According to the instructions of the antibody, HRP labeled streptavidin secondary antibody was diluted to an appropriate concentration with antibody diluent solution, then it was added to ELISA plate with 100 μL/well, and was incubated at room temperature for 1 h. The ELISA plate was washed with PBST for 5 times, and was patted dry on absorbent paper to remove excess liquid. TMB developing solution was added with 100 μL/well for development to an appropriate degree. 2M H₂SO₄ was added with 70 μL/well to terminate development, and the absorbance was measured at 450 nm on a multifunctional microplate reader. The data were analyzed.
The blocking effect of the above humanized antibodies on the binding of IL-33 to its receptor ST2 was determined by the ELISA method, and the relevant experimental methods were referred to Example 10.

Human IL-33-his [4] = target: T1, Human IL-33-his; assay: SPR Biacore 8K as Example 14, antibody captured, antigen as analyte
Procedure: (§2) A chip with covalently coupled Protein A/G (purchased from GE Healthcare, catalog number BR-1005-30) was used to capture each antibody to be tested, and the relevant operating parameters were as follows: The antibody concentration was […], the contact time was 75 s, the flow rate was […], and the regeneration contact time was 30 s. The IL-33-his antigen was diluted with HBS-EP pH7.4 buffer solution (purchased from GE Healthcare, catalog number BR-1006-69). The maximum concentration was 50 nM, and diluted to 0.39 nM by two-fold dilution. Duplicate wells and 0 concentration point well were set, and 6M guanidine hydrochloride solution was used as the regeneration buffer. The sample was injected on Biacore 8K according to the following parameters, the binding time was 180 s, the dissociation time was 900 s, the flow rate was 30 μL/min, and the regeneration contact time was 30 s. After running, Biacore 8K Evaluation Software was used to analyze the data according to the “1:1 binding kinetics model”, and the binding kinetics parameters of each antibody to IL-33 were obtained.
(§3) The experimental methods were referred to Example 14, in which the antigens cynomolgus IL-33 protein (purchased from Sino catalog number 90912-CNAE) and mouse IL-33 protein (purchased from R&D, 3626-ML-010/CF) were used, and human IL-33 protein was used as the control. Both 864F3-Hu4 and 874F7-Hu1 cross-react with cynomolgus IL-33 protein, and are consistent with the characteristics of each antibody binding to human IL-33 protein.

Cynomolgus IL-33-his = target: T2, Cynomolgus IL-33-his (cynomolgus, UniProt A0A2K5W3I1 112-269, biotinylated in the ELISA of Example 6); assay: as above
T2 construct: Bought protein; also called cynomolgus IL-33 protein; Cynomolgus monkeys IL-33
T2 sequence: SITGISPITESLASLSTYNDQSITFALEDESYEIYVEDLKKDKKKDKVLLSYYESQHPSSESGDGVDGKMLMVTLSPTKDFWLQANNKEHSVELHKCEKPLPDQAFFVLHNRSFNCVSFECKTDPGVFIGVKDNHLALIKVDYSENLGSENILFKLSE
Procedure: as §2, §3

Mouse IL-33 protein = target: T3, Mouse IL-33 protein (mouse, UniProt Q8BVZ5 109-266); assay: as above
T3 construct: Bought protein
T3 sequence (looked up): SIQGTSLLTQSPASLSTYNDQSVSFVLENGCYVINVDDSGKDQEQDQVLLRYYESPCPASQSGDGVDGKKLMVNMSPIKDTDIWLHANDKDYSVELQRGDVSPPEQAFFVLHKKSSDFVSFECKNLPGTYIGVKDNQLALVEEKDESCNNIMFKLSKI
Procedure: as §2, §3

Human IL-33-his [5] = target: T1, Human IL-33-his; assay: SPR Biacore 8K, antibody captured on Protein A/G chip, IL-33-his as analyte, 1:1 model
Procedure: as §2

Human IL-33-his [6] = target: T1, Human IL-33-his; assay: SPR Biacore 8K as Example 14, antibody captured, antigen as analyte; human IL-33 as the control in the cross-reactivity run of Table 3
Procedure: as §2
The experimental methods were referred to Example 14, in which the antigens cynomolgus IL-33 protein (purchased from Sino catalog number 90912-CNAE) and mouse IL-33 protein (purchased from R&D, 3626-ML-010/CF) were used, and human IL-33 protein was used as the control. […]

Human IL-33-his [7] = target: T1, Human IL-33-his; assay: ELISA, IL-33-his-biotin on streptavidin plate, anti-human Fc detection
Procedure: (§4) SA protein was diluted to 2 μg/mL to coat ELISA plate at 100 μL/well overnight at 4° C. The plate was washed with PBST (PBS containing 0.05% Tween20) for 3 times, and blocked with 2% BSA prepared in PBS at 200 μL/well, at room temperature for 2 h. After the plate was washed twice with PBST, IL-33-his-biotin protein was diluted to 1 μg/mL with 1% BSA prepared in PBST, and was added to ELISA plate at 100 μL/well. The plate was incubated at room temperature for 1 h, and each monoclonal antibody was diluted with 1% BSA prepared in PBST in a 3-fold gradient. The highest concentration of antibody was 10 μg/mL, and the antibody was diluted for 12 gradients. Each diluted monoclonal antibody was added to ELISA wells with 100 μL/well, and the plate was incubated at room temperature for 1 h. Each sample was added to duplicate wells in parallel. The plate was washed with PBST for 3 times, and HRP-anti human IgG Fc secondary antibody prepared with PBST was diluted at an appropriate ratio, and was added to ELISA wells at 100 μL/well. The plate was incubated at room temperature for 1 h. After washing with PBST for 3 times, TMB developing solution was added at 100 μL/well. When the development met expectations, 2M H₂SO₄ was added to terminate the chromogenic reaction at 70 μL/well. Each reaction solution was shaken uniformly and OD450 nm was read on a microplate reader. The data was analyzed and EC₅₀ was calculated.

Human IL-33-his [8] = target: T1, Human IL-33-his; assay: ELISA as Example 9, IL-33-his-biotin on streptavidin plate; run with Hu3, Hu4, Hu5
Procedure: as §4, with “When the development met expectations, 2M H₂SO₄ was added to terminate the chromogenic reaction at 70 μL/well.” left out

Human IL-33-his [9] = target: T1, Human IL-33-his; assay: ELISA as Example 9, IL-33-his-biotin on streptavidin plate; run with HuG, Hu1, Hu2
Procedure: as §4, with “When the development met expectations, 2M H₂SO₄ was added to terminate the chromogenic reaction at 70 μL/well.” left out

Human IL-33-his [10] = target: T1, Human IL-33-his; assay: competition ELISA, antibody mixed with IL-33-his-biotin, ST2-Fc on plate; competitor ST2-Fc
Procedure: as §1

B1: 864F3-Hu4 (antibody, human IgG4 S228P, kappa, V domains shown)
VH: QVQLQESGPGLVKPSETLSLTCTVSGFSLSKYGVHWIRQPPGKGLEWIGVLRAGGTISYNSALMSRVTISEDISKSQVSLKLSSVTAADTAVYYCARDHYYYSSFGGFASWGQGTLVTVSS
VL: DIQMTQSPSSLSASVGDRVTITCLASQTIATWLAWYQQKPGKSPKLLIYAATRLADGVPSRFSGSGSGTDFTLTISSLQPEDFATYYCQQLYNTPYTFGQGTKVEIKR
notes: Humanized; also called humanized antibody 864F3-Hu4
With B1 the “IC50 of inhibition of IFNγ secretion by NK cells induced by IL-33” value (Human IL-33-his [1]) was 0.904 nM, the “IC50 of inhibition of IL-5 secretion of KU812 cells induced by IL-33” value (Human IL-33-his [1]) was 27.6 nM and the “IC50 of inhibition of IL-13 secretion of KU812 cells induced by IL-33” value (Human IL-33-his [1]) was 14.7 nM. For the same binder, the “IC50 of the inhibitory effect on IL-6 expression in HUVEC cells induced by IL-33” value (Human IL-33-his [1]) was 0.073 nM, the “IC50 of the inhibitory effect on the IFN-γ secretion of PBMC induced by IL-33” value (Human IL-33-his [1]) was 1.22 nM and the EC50 (Human IL-33-his [2]) was 0.135 nM. The IC50 (Human IL-33-his [3]) was 0.512 nM, the koff (Human IL-33-his [4]) was 0.000149 s⁻¹ and the kon (Human IL-33-his [4]) was 270000 M⁻¹ s⁻¹. For the same binder, the Kd (Cynomolgus IL-33-his) was 0.637 nM, the koff (Cynomolgus IL-33-his) was 0.000245 s⁻¹ and the kon (Cynomolgus IL-33-his) was 385000 M⁻¹ s⁻¹. It also gave a Kd (Mouse IL-33 protein) of 190 nM, a koff (Mouse IL-33 protein) of 0.0205 s⁻¹ and a kon (Mouse IL-33 protein) of 108000 M⁻¹ s⁻¹. The Kd (Human IL-33-his [5]) was 1.38 nM, the koff (Human IL-33-his [5]) was 0.000447 s⁻¹ and the kon (Human IL-33-his [5]) was 323000 M⁻¹ s⁻¹. It also gave a Kd (Human IL-33-his [6]) of 0.552 nM.

B2: 864F3-ch2 (antibody, human IgG4 S228P, kappa, V domains shown)
VH: QVHLKESGPGLVAPSQSLSITCNVSGFSLSKYGVHWIRQTPGRGLDWLGVLRAGGTISYNSALMSRLSISEDISKSQVFLKMNDLQTDDSAIYFCARDHYYYSSFGGFASWGQGTLVTVSA
VL: DIQMTQSPASQSASLGESVTITCLASQTIATWLAWYQQKPGKSPQLLIYAATRLADGVPSRFSGSGSGTEFSFKISSLQAEDFVIYYCQQLYNTPYTFGGGTKLEIKR
notes: Chimeric: human IgG4 (S228P) and human kappa constant regions; also called chimeric antibody 864F3-ch2
B2 was tested, and the EC50 (Human IL-33-his [7]) was 0.173 nM, the EC50 (Human IL-33-his [8]) was 0.124 nM and the EC50 (Human IL-33-his [9]) was 0.169 nM. For the same binder, the IC50 (Human IL-33-his [10]) was 0.58 nM.
